{"source": "paper PMC8514580", "about": "“Insight into the interaction between the RNA helicase CGH-1 and EDC-3 and its implications” (Scientific Reports, 2021)", "binders": {"B1": {"name": "PATR-1 peptide (CePATR-1_(30–67)) (peptide)", "peptide": "SDEDHNIFDDEFDAANDETFGGGLDNIGENAELENYAT", "notes": "PATR-1 (Pat1 ortholog), C. elegans, residues 30-67; Printed with free NH2 and COOH ends; also called PATR1_30-67^WT; CePATR-1 peptide; source: synthetic peptide (GL Biochem, Shanghai)"}}, "experiment_in_all_cases": "ITC; ligand (peptide or CAR-1 fragment, 0.5 mM) injected into CGH-1_(248-420) or mutant (0.05 mM) in the cell; 20 °C; Buffer B (20 mM Tris-HCl pH 7.5, 150 mM NaCl); one-binding-site model", "settings_in_all_cases": "both partners purified", "key": {"[1]": {"molecular_target": "T1, CGH-1_(248–420) 4A mutant (His269, Cys270, Thr273 and Leu274 to Ala) (C. elegans, UniProt Q95YF3 248-420, His269 to Ala | Cys270 to Ala | Thr273 to Ala | Leu274 to Ala)", "T1 construct": "Mutant of m1 made with the MutanBEST kit; also called four-alanine mutant; source: E. coli Gold (DE3), purified (Ni-chelating resin, SEC Superdex 75)", "T1 sequence (looked up)": "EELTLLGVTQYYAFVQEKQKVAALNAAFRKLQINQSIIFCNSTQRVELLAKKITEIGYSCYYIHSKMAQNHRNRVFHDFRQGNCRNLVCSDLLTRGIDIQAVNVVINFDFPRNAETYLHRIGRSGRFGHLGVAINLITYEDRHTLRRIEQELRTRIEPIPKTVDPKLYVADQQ"}, "[2]": {"molecular_target": "T2, CGH-1_(248–420) wild type (CGH-1 RecA2 domain) (C. elegans, UniProt Q95YF3 248-420)", "T2 construct": "Cloned into NdeI/XhoI of a modified pET-28a in which the thrombin cleavage site was removed; also called CGH-1_248-420^WT; source: E. coli Gold (DE3), purified (Ni-chelating resin, SEC Superdex 75)", "T2 sequence (looked up)": "T1 sequence (looked up) with A22H, A23C, A26T, A27L"}, "CGH-1_(248–420) E396A": {"molecular_target": "T3, CGH-1_(248–420) E396A (C. elegans, UniProt Q95YF3 248-420, E396A)", "T3 construct": "Mutant of m1 made with the MutanBEST kit; source: E. coli Gold (DE3), purified (Ni-chelating resin, SEC Superdex 75)", "T3 sequence (looked up)": "T1 sequence (looked up) with A22H, A23C, A26T, A27L, E149A"}, "CGH-1_(248–420) K277A": {"molecular_target": "T4, CGH-1_(248–420) K277A (C. elegans, UniProt Q95YF3 248-420, K277A)", "T4 construct": "Mutant of m1 made with the MutanBEST kit; source: E. coli Gold (DE3), purified (Ni-chelating resin, SEC Superdex 75)", "T4 sequence (looked up)": "T1 sequence (looked up) with A22H, A23C, A26T, A27L, K30A"}, "CGH-1_(248–420) H269A": {"molecular_target": "T5, CGH-1_(248–420) H269A (C. elegans, UniProt Q95YF3 248-420, H269A)", "T5 construct": "Mutant of m1 made with the MutanBEST kit; source: E. coli Gold (DE3), purified (Ni-chelating resin, SEC Superdex 75)", "T5 sequence (looked up)": "T1 sequence (looked up) with A23C, A26T, A27L"}, "CGH-1_(248–420) Q266A": {"molecular_target": "T6, CGH-1_(248–420) Q266A (C. elegans, UniProt Q95YF3 248-420, Q266A)", "T6 construct": "Mutant of m1 made with the MutanBEST kit; source: E. coli Gold (DE3), purified (Ni-chelating resin, SEC Superdex 75)", "T6 sequence (looked up)": "T1 sequence (looked up) with Q19A, A22H, A23C, A26T, A27L"}, "CGH-1_(248–420) R393A": {"molecular_target": "T7, CGH-1_(248–420) R393A (C. elegans, UniProt Q95YF3 248-420, R393A)", "T7 construct": "Mutant of m1 made with the MutanBEST kit; source: E. coli Gold (DE3), purified (Ni-chelating resin, SEC Superdex 75)", "T7 sequence (looked up)": "T1 sequence (looked up) with A22H, A23C, A26T, A27L, R146A"}}, "note": "Substitutions are numbered along the chain they refer to.", "data": [{"binder": "B1", "values": [{"measurement": "Kd", "setting": "[1]", "result": "2.06 ± 0.27", "unit": "µM"}, {"measurement": "dH", "setting": "[1]", "result": "-15.4 ± 0.44", "unit": "kcal/mol"}, {"measurement": "stoichiometry N", "setting": "[1]", "result": 0.79}, {"measurement": "Kd", "setting": "[2]", "result": "2.13 ± 0.38", "unit": "µM"}, {"measurement": "dH", "setting": "[2]", "result": "-15.8 ± 0.62", "unit": "kcal/mol"}, {"measurement": "stoichiometry N", "setting": "[2]", "result": 0.88}, {"measurement": "Kd", "setting": "CGH-1_(248–420) E396A", "result": "2.96 ± 0.34", "unit": "µM"}, {"measurement": "dH", "setting": "CGH-1_(248–420) E396A", "result": "-16.3 ± 0.47", "unit": "kcal/mol"}, {"measurement": "stoichiometry N", "setting": "CGH-1_(248–420) E396A", "result": 0.93}, {"measurement": "Kd", "setting": "CGH-1_(248–420) K277A", "result": "4.43 ± 0.42", "unit": "µM"}, {"measurement": "dH", "setting": "CGH-1_(248–420) K277A", "result": "-17.2 ± 0.57", "unit": "kcal/mol"}, {"measurement": "stoichiometry N", "setting": "CGH-1_(248–420) K277A", "result": 1.07}, {"measurement": "Kd", "setting": "CGH-1_(248–420) H269A", "result": "2.67 ± 0.44", "unit": "µM"}, {"measurement": "dH", "setting": "CGH-1_(248–420) H269A", "result": "-15.4 ± 0.67", "unit": "kcal/mol"}, {"measurement": "stoichiometry N", "setting": "CGH-1_(248–420) H269A", "result": 0.94}, {"measurement": "Kd", "setting": "CGH-1_(248–420) Q266A", "result": "2.97 ± 0.29", "unit": "µM"}, {"measurement": "dH", "setting": "CGH-1_(248–420) Q266A", "result": "-16.6 ± 0.41", "unit": "kcal/mol"}, {"measurement": "stoichiometry N", "setting": "CGH-1_(248–420) Q266A", "result": 0.86}, {"measurement": "Kd", "setting": "CGH-1_(248–420) R393A", "result": "4.22 ± 0.62", "unit": "µM"}, {"measurement": "dH", "setting": "CGH-1_(248–420) R393A", "result": "-16.6 ± 0.69", "unit": "kcal/mol"}, {"measurement": "stoichiometry N", "setting": "CGH-1_(248–420) R393A", "result": 0.8}]}]}
